How the values were obtained:
Test in all cases: SEC; 3x molar excess of Rab mixed with C9orf72, overnight on ice with 20 mM EDTA; gel filtration in 20 mM Tris pH 8.0, 300 mM NaCl, 2 mM DTT, 20 mM EDTA (Superdex75 in the methods, Superdex 200 10/30 in the legend); 21 uM C9orf72 and 48 uM Rab per run; fractions checked by SDS-PAGE and western blot
Rab5A = target: T1, Rab5A (UniProt P20339 1-215); details: both partners purified
T1 construct: Rab5A, amplified from its cDNA clone and put into pGEX-6p-1 (BamHI/XhoI); about 25 kDa after tag cleavage; source: E. coli BL21CodonPlus(DE3)RIPL, purified (GST Sepharose 4B, PreScission cleavage, second GST Sepharose pass); not shown: GST, N-terminal, cleaved
T1 sequence (looked up): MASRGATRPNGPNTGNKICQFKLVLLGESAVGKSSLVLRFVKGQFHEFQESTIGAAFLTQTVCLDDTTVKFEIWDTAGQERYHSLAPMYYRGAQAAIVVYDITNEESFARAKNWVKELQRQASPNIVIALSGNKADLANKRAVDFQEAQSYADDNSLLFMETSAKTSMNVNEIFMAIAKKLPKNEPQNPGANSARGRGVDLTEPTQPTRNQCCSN

Rab11A = target: T2, Rab11A (UniProt P62491 1-216); details: both partners purified
T2 construct: Rab11A, amplified from its cDNA clone and put into pGEX-6p-1 (BamHI/XhoI); about 25 kDa after tag cleavage; source: E. coli BL21CodonPlus(DE3)RIPL, purified (GST Sepharose 4B, PreScission cleavage, second GST Sepharose pass); not shown: GST, N-terminal, cleaved
T2 sequence (looked up): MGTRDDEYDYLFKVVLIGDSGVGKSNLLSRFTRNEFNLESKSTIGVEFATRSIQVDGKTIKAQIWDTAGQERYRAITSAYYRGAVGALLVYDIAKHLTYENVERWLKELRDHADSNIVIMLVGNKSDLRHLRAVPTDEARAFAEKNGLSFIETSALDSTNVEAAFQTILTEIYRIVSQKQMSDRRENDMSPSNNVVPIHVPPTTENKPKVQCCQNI

[1] = target: the molecule itself

B1: C9orf72 (N-terminal His6, pOPINF-C9orf72) (natural protein, human, UniProt Q96LT7 1-481, looked up)
chain: MSTLCPPPSPAVAKTEIALSGKSPLLAATFAYWDNILGPRVRHIWAPKTEQVLLSDGEITFLANHTLNGEILRNAESGAIDVKFFVLSEKGVIIVSLIFDGNWNGDRSTYGLSIILPQTELSFYLPLHRVCVDRLTHIIRKGRIWMHKERQENVQKIILEGTERMEDQGQSIIPMLTGEVIPVMELLSSMKSHSVPEEIDIADTVLNDDDIGDSCHEGFLLNAISSHLQTCGCSVVVGSSAEKVNKIVRTLCLFLTPAERKCSRLCEAESSFKYESGLFVQGLLKDSTGSFVLPFRQVMYAPYPTTHIDVDVNTVKQMPPCHEHIYNQRRYMRSELTAFWRATSEEDMAQDTIIYTDESFTPDLNIFQDVLHRDTLVKAFLDQVFQLKPGLSLRSTFLAQFLLVLHRKALTLIKYIEDDTQKGKKPFKSLRNLKIDLDLTAEGDLNIIMALAEKIKPGLHSFIFGRPFYTSVQERDVLMTF
notes: the homology model counts residues up to 481; No tag cleavage is described; also called His6-C9orf72; recombinant C9orf72; source: Sf9, baculovirus, purified (HisTrap HP, Superdex200 size-exclusion chromatography); not shown: His6, N-terminal, kept
Rab5A
  stoichiometry N: 1
Rab11A
  stoichiometry N: 1
[1]
  binding result: binds
